From article PMC10688784, “In vitro characterization of the phage lysis protein MS2-L” (Microbiome Research Reports, 2023)
Read-outs that look alike come from different tables or passages of the source.

Tests used:
[1] = molecular target: MS2-Lp23, MS2-L truncated of the first 22 amino acids, C-terminal StrepII-tag (MS2 phage); experiment: native MS; LILBID-MS; derivatives CF expressed in standard A19 S30 lysate with 60 µM DMPG nanodiscs, purified; 50 mM ammonium acetate pH 7.4; laser 10-20 mJ
[2] = molecular target: MS2-Lp23, MS2-L truncated of the first 22 amino acids, C-terminal StrepII-tag (MS2 phage); experiment: native MS; LILBID-MS; derivatives CF expressed in standard A19 S30 lysate with 0.4% Brij78, purified; 50 mM ammonium acetate pH 7.4 with 0.02% Brij78; laser 10-20 mJ
[3] = molecular target: MS2-Lp26, MS2-L truncated of the first 25 amino acids, C-terminal StrepII-tag (MS2 phage); experiment: native MS; LILBID-MS; derivatives CF expressed in standard A19 S30 lysate with 60 µM DMPG nanodiscs, purified; 50 mM ammonium acetate pH 7.4; laser 10-20 mJ
[4] = molecular target: MS2-Lp26, MS2-L truncated of the first 25 amino acids, C-terminal StrepII-tag (MS2 phage); experiment: native MS; LILBID-MS; derivatives CF expressed in standard A19 S30 lysate with 0.4% Brij78, purified; 50 mM ammonium acetate pH 7.4 with 0.02% Brij78; laser 10-20 mJ
[5] = molecular target: MS2-Lp29, MS2-L truncated of the first 28 amino acids, C-terminal StrepII-tag (MS2 phage); experiment: native MS; LILBID-MS; derivatives CF expressed in standard A19 S30 lysate with 60 µM DMPG nanodiscs, purified; 50 mM ammonium acetate pH 7.4; laser 10-20 mJ
[6] = molecular target: MS2-Lp29, MS2-L truncated of the first 28 amino acids, C-terminal StrepII-tag (MS2 phage); experiment: native MS; LILBID-MS; derivatives CF expressed in standard A19 S30 lysate with 0.4% Brij78, purified; 50 mM ammonium acetate pH 7.4 with 0.02% Brij78; laser 10-20 mJ
[7] = molecular target: MS2-Lp32, MS2-L truncated of the first 31 amino acids, C-terminal StrepII-tag (MS2 phage); experiment: native MS; LILBID-MS; derivatives CF expressed in standard A19 S30 lysate with 60 µM DMPG nanodiscs, purified; 50 mM ammonium acetate pH 7.4; laser 10-20 mJ
[8] = molecular target: MS2-Lp32, MS2-L truncated of the first 31 amino acids, C-terminal StrepII-tag (MS2 phage); experiment: native MS; LILBID-MS; derivatives CF expressed in standard A19 S30 lysate with 0.4% Brij78, purified; 50 mM ammonium acetate pH 7.4 with 0.02% Brij78; laser 10-20 mJ
[9] = molecular target: MS2-Lp35, MS2-L truncated of the first 34 amino acids, C-terminal StrepII-tag (MS2 phage); experiment: native MS; LILBID-MS; derivatives CF expressed in standard A19 S30 lysate with 60 µM DMPG nanodiscs, purified; 50 mM ammonium acetate pH 7.4; laser 10-20 mJ
[10] = molecular target: MS2-Lp35, MS2-L truncated of the first 34 amino acids, C-terminal StrepII-tag (MS2 phage); experiment: native MS; LILBID-MS; derivatives CF expressed in standard A19 S30 lysate with 0.4% Brij78, purified; 50 mM ammonium acetate pH 7.4 with 0.02% Brij78; laser 10-20 mJ
[11] = molecular target: T1, chaperone DnaJ with C-terminal His6-tag (UniProt P08622 1-376); experiment: pull-down; conditions: one partner purified
T1 construct: Chaperone DnaJ; the dnaJ gene cloned into NdeI/XhoI of pET21a; source: E. coli T7 Express, purified (Ni-NTA); not shown: His6, C-terminal, kept
T1 sequence (looked up): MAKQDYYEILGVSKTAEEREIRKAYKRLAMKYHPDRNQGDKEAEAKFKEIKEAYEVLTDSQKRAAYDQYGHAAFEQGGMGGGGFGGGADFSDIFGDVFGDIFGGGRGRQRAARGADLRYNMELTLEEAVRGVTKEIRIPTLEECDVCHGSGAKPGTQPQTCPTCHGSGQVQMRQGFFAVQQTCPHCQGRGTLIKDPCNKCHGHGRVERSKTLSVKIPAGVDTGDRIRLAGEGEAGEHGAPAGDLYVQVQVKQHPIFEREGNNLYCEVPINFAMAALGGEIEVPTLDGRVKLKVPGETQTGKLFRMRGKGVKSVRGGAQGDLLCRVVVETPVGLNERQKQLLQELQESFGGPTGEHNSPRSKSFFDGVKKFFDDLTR

[12] = molecular target: MS2-L, full-length phage lysis protein with C-terminal StrepII-tag (MS2 phage) (UniProt P03609); experiment: native MS; LILBID-MS; derivatives CF expressed in standard A19 S30 lysate with 60 µM DMPG nanodiscs, purified; 50 mM ammonium acetate pH 7.4; laser 10-20 mJ
[13] = molecular target: MS2-L, full-length phage lysis protein with C-terminal StrepII-tag (MS2 phage) (UniProt P03609); experiment: as above; remark: listed apart in the source

Molecule: MS2-Lp23, MS2-L truncated of the first 22 amino acids, C-terminal StrepII-tag (domain or fragment)
- stoichiometry N [1]: > 10 monomers
- stoichiometry N [2]: < 4 monomers

Molecule: MS2-Lp26, MS2-L truncated of the first 25 amino acids, C-terminal StrepII-tag (domain or fragment)
- stoichiometry N [3]: > 10 monomers
- stoichiometry N [4]: < 4 monomers

Molecule: MS2-Lp29, MS2-L truncated of the first 28 amino acids, C-terminal StrepII-tag (domain or fragment)
- stoichiometry N [5]: > 10 monomers
- stoichiometry N [6]: < 4 monomers

Molecule: MS2-Lp32, MS2-L truncated of the first 31 amino acids, C-terminal StrepII-tag (domain or fragment)
- stoichiometry N [7]: > 10 monomers
- stoichiometry N [8]: < 4 monomers

Molecule: MS2-Lp35, MS2-L truncated of the first 34 amino acids, C-terminal StrepII-tag (domain or fragment)
- stoichiometry N [9]: > 10 monomers
- stoichiometry N [10]: < 10 monomers

B1: MS2-L, full-length phage lysis protein with C-terminal StrepII-tag (natural protein, MS2 phage, UniProt P03609 1-75, looked up)
chain: MKTRFPQQSQQTPASTNRRRPFKHEDYPCRRQQRSSTLYVLIFLAIFLSKFTNQLLLSLLEAVIRTVTTLQQLLT
notes: Lysis protein L of bacteriophage MS2, 75 amino acids; codon exchange GAA (Glu) to AAA (Lys) at the first position after the start methionine; In nanodisc samples the peptide sits in MSP1E3D1/DMPG nanodiscs; also called full-length MS2-L; full-length toxin MS2-L; source: also unpurified in the reaction mix; not shown: StrepII, C-terminal, kept
- binding result [11]: binds
- stoichiometry N [12]: > 10 monomers
- stoichiometry N [13]: < 12 monomers
